Ends that are not written are not given here.
B1: EMP-1 (EPO mimetic peptide-1) (peptide)
peptide: GGTYSCHFGPLTWVCKPQGG
modifications: ends and bridges not checked; cysteine pairing not given here

Experiments:
[1] = target: EPO receptor (on UT-7/EPO cells) (human) (UniProt P19235); experiment: cell-based or functional assay
[2] = target: T1, EPO receptor (on UT-7/EPO cells) (human, UniProt P19235 25-508); experiment: cell-based or functional assay
T1 sequence (looked up): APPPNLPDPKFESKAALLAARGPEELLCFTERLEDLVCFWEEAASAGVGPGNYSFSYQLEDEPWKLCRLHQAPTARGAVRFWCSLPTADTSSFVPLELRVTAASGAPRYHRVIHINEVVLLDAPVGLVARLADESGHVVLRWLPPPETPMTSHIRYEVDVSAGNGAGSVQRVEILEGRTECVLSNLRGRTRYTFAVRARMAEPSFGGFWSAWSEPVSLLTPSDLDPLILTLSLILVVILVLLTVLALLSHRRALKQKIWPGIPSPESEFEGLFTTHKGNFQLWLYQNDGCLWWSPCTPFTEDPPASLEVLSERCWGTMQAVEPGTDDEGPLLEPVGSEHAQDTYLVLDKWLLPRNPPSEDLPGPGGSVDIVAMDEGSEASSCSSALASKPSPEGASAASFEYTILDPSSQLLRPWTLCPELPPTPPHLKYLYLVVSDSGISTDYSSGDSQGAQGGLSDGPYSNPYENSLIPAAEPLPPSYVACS

Molecule | EC50 in the UT7 in vitro bioactivity assay, relative to its historical average [1] [fold] | EC50 in the UT-7/EPO in vitro bioactivity assay, relative to its historical average [2] [fold]
recombinant human erythropoietin (rHuEPO) (from UniProt P01588 28-192) (ligand) | 3 | –
B1 | – | 2

— US20050191301A1 (Janssen / Centocor, published 2005)
